From publication PMC6940745 (International Journal of Molecular Sciences, 2019)
[ ]: non-standard residue; d: D form. The star is where a group is joined. N(indol-3-ylmethyl)Gly = O=C(O)CNCc1c[nH]c2ccccc12; Bz = O=C(c1ccccc1)*; NPr2 = CCCN(CCC)*

Tests used:
[1] = target: Melanocortin-1 receptor (MC1R), human recombinant, in CHO-K1 cells (human) (UniProt Q01726)
[2] = target: Melanocortin-1 receptor (MC1R), human recombinant, in CHO-K1 cells (human) (UniProt Q01726); remark: listed apart in the source
[3] = target: Opioid receptor OP2R (human kappa opioid receptor) (human) (UniProt P41145)
[4] = target: Endothelin B-receptor (ETBR), human (human) (UniProt P24530)
Sequence of Endothelin B-receptor (ETBR), human (human) (P24530 27-442): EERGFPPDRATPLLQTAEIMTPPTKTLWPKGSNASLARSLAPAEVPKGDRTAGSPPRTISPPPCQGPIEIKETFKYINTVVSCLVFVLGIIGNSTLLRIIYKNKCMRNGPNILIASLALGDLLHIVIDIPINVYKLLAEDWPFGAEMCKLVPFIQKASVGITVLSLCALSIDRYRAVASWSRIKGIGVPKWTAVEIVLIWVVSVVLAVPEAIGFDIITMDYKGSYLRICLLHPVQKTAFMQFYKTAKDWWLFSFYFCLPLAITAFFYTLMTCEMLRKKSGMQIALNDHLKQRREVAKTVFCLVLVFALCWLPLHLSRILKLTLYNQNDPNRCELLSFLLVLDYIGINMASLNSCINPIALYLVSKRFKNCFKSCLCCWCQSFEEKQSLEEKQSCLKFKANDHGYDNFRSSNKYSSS

[5] = target: Melanin-concentrating hormone receptor MCH2R, human (human) (UniProt Q969V1)
Sequence of Melanin-concentrating hormone receptor MCH2R, human (human) (Q969V1 whole entry): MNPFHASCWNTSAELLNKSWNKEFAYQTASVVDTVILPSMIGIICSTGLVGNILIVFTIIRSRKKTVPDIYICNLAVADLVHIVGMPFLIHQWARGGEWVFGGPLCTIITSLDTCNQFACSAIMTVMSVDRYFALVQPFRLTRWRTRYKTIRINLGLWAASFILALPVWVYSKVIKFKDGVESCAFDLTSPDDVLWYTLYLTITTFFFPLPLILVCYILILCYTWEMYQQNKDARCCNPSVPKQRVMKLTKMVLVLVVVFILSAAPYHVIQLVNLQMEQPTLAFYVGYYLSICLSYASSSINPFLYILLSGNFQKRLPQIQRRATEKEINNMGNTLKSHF

[6] = target: Melanin-concentrating hormone receptor MCH1R, human (human) (UniProt Q99705)
Sequence of Melanin-concentrating hormone receptor MCH1R, human (human) (Q99705 whole entry): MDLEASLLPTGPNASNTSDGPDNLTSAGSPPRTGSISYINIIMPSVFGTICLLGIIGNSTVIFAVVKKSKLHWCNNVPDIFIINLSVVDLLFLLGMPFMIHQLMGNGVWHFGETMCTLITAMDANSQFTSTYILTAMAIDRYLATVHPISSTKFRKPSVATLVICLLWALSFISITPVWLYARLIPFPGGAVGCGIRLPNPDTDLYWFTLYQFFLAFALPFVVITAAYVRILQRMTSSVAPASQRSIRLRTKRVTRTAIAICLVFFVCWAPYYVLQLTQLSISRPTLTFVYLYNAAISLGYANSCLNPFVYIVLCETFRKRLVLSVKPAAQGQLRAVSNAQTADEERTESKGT

[7] = target: Opioid receptor OP3R (human mu opioid receptor) (human) (UniProt P35372)
[8] = target: T1, Melatonin receptor MT2R (UniProt P49286)
T1 sequence: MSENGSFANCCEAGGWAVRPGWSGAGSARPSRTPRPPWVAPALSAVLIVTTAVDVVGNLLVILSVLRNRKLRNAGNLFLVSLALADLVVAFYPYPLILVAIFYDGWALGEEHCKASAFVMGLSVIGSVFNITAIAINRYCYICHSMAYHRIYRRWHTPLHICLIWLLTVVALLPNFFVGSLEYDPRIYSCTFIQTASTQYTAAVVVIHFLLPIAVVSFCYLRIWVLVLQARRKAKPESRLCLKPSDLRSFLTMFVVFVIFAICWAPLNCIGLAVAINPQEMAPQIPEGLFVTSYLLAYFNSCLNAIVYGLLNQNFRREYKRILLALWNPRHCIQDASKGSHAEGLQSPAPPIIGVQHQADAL

[9] = target: Melatonin receptor MT1R (UniProt P48039)
Sequence of Melatonin receptor MT1R (P48039 whole entry): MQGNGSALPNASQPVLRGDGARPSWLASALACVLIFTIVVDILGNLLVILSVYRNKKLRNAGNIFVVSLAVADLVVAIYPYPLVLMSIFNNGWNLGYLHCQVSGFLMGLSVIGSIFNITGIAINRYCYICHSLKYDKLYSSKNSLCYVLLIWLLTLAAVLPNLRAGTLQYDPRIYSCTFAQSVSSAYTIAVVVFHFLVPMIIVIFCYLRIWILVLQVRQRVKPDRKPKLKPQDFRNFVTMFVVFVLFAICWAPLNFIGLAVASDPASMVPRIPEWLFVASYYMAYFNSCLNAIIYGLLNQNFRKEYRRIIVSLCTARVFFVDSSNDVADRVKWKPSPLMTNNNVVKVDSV

[10] = target: Melanocortin-3 receptor (MC3R), recombinant, in CHO-K1 cells (human) (UniProt P41968)
Sequence of Melanocortin-3 receptor (MC3R), recombinant, in CHO-K1 cells (human) (P41968 whole entry): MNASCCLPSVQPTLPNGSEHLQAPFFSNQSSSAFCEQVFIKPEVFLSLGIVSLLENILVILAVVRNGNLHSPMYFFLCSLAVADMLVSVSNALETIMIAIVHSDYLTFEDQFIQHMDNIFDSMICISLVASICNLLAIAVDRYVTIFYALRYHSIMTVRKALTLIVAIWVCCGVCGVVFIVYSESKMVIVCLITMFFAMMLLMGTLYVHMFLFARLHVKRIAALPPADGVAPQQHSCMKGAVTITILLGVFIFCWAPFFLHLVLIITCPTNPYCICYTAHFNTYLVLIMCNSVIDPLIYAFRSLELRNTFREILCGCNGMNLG

[11] = target: Melanocortin-2 receptor (MC2R), recombinant, in CHO-K1 cells (human) (UniProt Q01718)
Sequence of Melanocortin-2 receptor (MC2R), recombinant, in CHO-K1 cells (human) (Q01718 whole entry): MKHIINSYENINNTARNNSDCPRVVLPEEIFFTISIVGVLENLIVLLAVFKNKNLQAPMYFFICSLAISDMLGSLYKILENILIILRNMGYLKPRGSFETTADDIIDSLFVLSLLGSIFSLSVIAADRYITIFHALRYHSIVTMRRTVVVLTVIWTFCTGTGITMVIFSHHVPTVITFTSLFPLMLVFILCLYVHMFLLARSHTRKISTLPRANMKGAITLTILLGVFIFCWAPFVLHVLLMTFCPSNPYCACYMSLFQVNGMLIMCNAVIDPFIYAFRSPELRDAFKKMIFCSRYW

[12] = target: Melanocortin-4 receptor (MC4R), recombinant, in CHO-K1 cells (human) (UniProt P32245)
Sequence of Melanocortin-4 receptor (MC4R), recombinant, in CHO-K1 cells (human) (P32245 whole entry): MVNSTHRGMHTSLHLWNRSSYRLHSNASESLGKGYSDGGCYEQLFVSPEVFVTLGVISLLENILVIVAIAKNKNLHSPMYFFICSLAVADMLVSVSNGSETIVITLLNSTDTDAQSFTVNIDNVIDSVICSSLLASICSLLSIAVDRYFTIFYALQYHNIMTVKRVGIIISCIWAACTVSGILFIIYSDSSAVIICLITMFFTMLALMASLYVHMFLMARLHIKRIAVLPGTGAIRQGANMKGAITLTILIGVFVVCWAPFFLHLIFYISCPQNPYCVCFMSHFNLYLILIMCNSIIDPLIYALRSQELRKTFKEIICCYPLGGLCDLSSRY

[13] = target: Serotonin receptor 5-HT2AR, human (human) (UniProt P28223)
[14] = target: Melanocortin-5 receptor (MC5R), recombinant, in CHO-K1 cells (human) (UniProt P33032)
Sequence of Melanocortin-5 receptor (MC5R), recombinant, in CHO-K1 cells (human) (P33032 whole entry): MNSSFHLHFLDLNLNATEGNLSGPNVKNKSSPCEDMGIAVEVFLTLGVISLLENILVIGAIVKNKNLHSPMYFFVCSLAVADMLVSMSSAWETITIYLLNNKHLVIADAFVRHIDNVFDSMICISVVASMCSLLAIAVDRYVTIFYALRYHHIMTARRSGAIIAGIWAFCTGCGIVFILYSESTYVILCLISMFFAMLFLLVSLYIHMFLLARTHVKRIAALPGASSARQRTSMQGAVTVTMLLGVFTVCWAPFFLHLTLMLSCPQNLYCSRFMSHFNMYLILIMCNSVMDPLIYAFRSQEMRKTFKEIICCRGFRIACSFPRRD

[15] = target: Opioid receptor OP1R (human delta opioid receptor) (human) (UniProt P41143)

Sequence of Melanocortin-1 receptor (MC1R), human recombinant, in CHO-K1 cells (human) (Q01726 whole entry): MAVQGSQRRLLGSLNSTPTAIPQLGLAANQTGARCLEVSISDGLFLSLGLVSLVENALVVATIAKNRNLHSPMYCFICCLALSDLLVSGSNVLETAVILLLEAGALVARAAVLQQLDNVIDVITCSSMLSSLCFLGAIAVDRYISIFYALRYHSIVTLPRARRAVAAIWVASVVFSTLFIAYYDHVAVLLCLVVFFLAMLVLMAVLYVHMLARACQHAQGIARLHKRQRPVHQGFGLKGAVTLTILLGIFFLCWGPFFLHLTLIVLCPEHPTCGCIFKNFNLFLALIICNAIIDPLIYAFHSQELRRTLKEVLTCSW

In the case of “MC1R-agonist pentapeptide 2 (Bz-Gly-His-D-Phe-Arg-L-NaphAla-NH2)”, the EC50 of MC1R activation (cAMP HTRF assay, CHO-K1 cells expressing human MC1R) [1] is reported as 0.11 nM.

In the case of “MC1R-agonist pentapeptide 3 (Bz-Gly-His-D-Phe-Arg-D-NaphAla-NH2)”, the EC50 of MC1R activation (cAMP HTRF assay, CHO-K1 cells expressing human MC1R) [1] is reported as 0.25 nM.

“MC1R-agonist pentapeptide 8 (Bz-Gly-His-D-Phe-Dab-L-Trp-NH2)” was tested, and the EC50 of MC1R activation (cAMP HTRF assay, CHO-K1 cells expressing human MC1R) [1] was 7.51 nM.

“NDP-alpha-MSH [Nle^4, D-Phe^7] (peptide)” showed an EC50 of MC1R activation (cAMP production, recombinant CHO-MC1R cell line; control compound) [2] of 0.071 nM.

B1: MC1R-agonist pentapeptide 1 (Bz-Gly-His-D-Phe-Arg-L-Trp-NH2) (peptide)
peptide: Bz-GH[dF]RW-NH2
SMILES: N=C(N)NCCC[C@H](NC(=O)[C@@H](Cc1ccccc1)NC(=O)[C@H](Cc1c[nH]cn1)NC(=O)CNC(=O)c1ccccc1)C(=O)N[C@@H](Cc1c[nH]c2ccccc12)C(N)=O
With B1 the EC50 of MC1R activation (cAMP HTRF assay, CHO-K1 cells expressing human MC1R) [1] was 0.041 nM.

B2: MC1R-agonist pentapeptide 4 (Bz-Gly-His-D-Phe-Arg-D-Trp-N(Propyl)2) (peptide)
peptide: Bz-GH[dF]R[dW]-NPr2
SMILES: CCCN(CCC)C(=O)[C@@H](Cc1c[nH]c2ccccc12)NC(=O)[C@H](CCCNC(=N)N)NC(=O)[C@@H](Cc1ccccc1)NC(=O)[C@H](Cc1c[nH]cn1)NC(=O)CNC(=O)c1ccccc1
In the case of B2, the EC50 of receptor activation (GTPγ[35S] scintillation proximity assay on CHO-K1 membrane preparations; eight concentrations from 0.01 to 100,000 nM) [3] is reported as over 100 µM, the EC50 of receptor activation (Aequorin assay, recombinant cells; eight concentrations from 0.01 to 100,000 nM) [4] is reported as over 100 µM and the EC50 of receptor activation (Aequorin assay, recombinant cells; eight concentrations from 0.01 to 100,000 nM) [5] is reported as over 100 µM. It also gave an EC50 of receptor activation (Aequorin assay, recombinant cells; eight concentrations from 0.01 to 100,000 nM) [6] of over 100 µM, an EC50 of receptor activation (GTPγ[35S] scintillation proximity assay on CHO-K1 membrane preparations; eight concentrations from 0.01 to 100,000 nM) [7] of over 100 µM and an EC50 of receptor activation (GTPγ[35S] scintillation proximity assay on CHO-K1 membrane preparations; eight concentrations from 0.01 to 100,000 nM) [8] of over 100 µM. It also gave an EC50 of receptor activation (GTPγ[35S] scintillation proximity assay on CHO-K1 membrane preparations; eight concentrations from 0.01 to 100,000 nM) [9] of over 100 µM, an EC50 of receptor activation (cAMP HTRF assay, CHO-K1 cells; eight concentrations from 0.01 to 100,000 nM) [10] of 877 nM and an EC50 of receptor activation (cAMP HTRF assay, CHO-K1 cells; eight concentrations from 0.01 to 100,000 nM) [11] of over 100 µM. It also gave an EC50 of receptor activation (cAMP HTRF assay, CHO-K1 cells; eight concentrations from 0.01 to 100,000 nM) [12] of 136 nM, an EC50 of receptor activation (Aequorin assay, recombinant cells; eight concentrations from 0.01 to 100,000 nM) [13] of over 100 µM and an EC50 of receptor activation (cAMP HTRF assay, CHO-K1 cells; eight concentrations from 0.01 to 100,000 nM) [14] of over 100 µM. The EC50 of receptor activation (GTPγ[35S] scintillation proximity assay on CHO-K1 membrane preparations; eight concentrations from 0.01 to 100,000 nM) [15] was over 100 µM and the EC50 of MC1R activation (cAMP HTRF assay, CHO-K1 cells expressing human MC1R) [1] was 0.42 nM.

B3: MC1R-agonist pentapeptide 5 (Bz-Gly-His-D-Phe-Arg-L-Trp-N(Propyl)2) (peptide)
peptide: Bz-GH[dF]RW-NPr2
SMILES: CCCN(CCC)C(=O)[C@H](Cc1c[nH]c2ccccc12)NC(=O)[C@H](CCCNC(=N)N)NC(=O)[C@@H](Cc1ccccc1)NC(=O)[C@H](Cc1c[nH]cn1)NC(=O)CNC(=O)c1ccccc1
For B3, the EC50 of MC1R activation (cAMP HTRF assay, CHO-K1 cells expressing human MC1R) [1] was 0.88 nM.

B4: MC1R-agonist pentapeptide 6 (Bz-Gly-His-D-Phe-Arg-D-Phe-NH2) (peptide)
peptide: Bz-GH[dF]R[dF]-NH2
SMILES: N=C(N)NCCC[C@H](NC(=O)[C@@H](Cc1ccccc1)NC(=O)[C@H](Cc1c[nH]cn1)NC(=O)CNC(=O)c1ccccc1)C(=O)N[C@H](Cc1ccccc1)C(N)=O
B4 gave an EC50 of MC1R activation (cAMP HTRF assay, CHO-K1 cells expressing human MC1R) [1] of 1.79 nM.

With Bz-GH[dF]R[N(indol-3-ylmethyl)Gly]-NH2 [MC1R-agonist pentapeptide 7 (Bz-Gly-His-D-Phe-Arg-[N-(CH2-3-indolyl)Gly]-NH2)] the EC50 of MC1R activation (cAMP HTRF assay, CHO-K1 cells expressing human MC1R) [1] was 4.4 nM.
